Experimental data as given in patent US20260151494A1 (ARO BIOTHERAPEUTICS, published 2026).

What was measured:
[1] = biological target: T1, human CD71 extracellular domain (CD71-ECD) (human, UniProt P02786 89-760); experiment: primary ELISA; also: test concentration or dose not given here
T1 construct: also called hCD71; human CD71-ECD

[2] = biological target: T1, human CD71 extracellular domain …; experiment: primary ELISA, RLU ratio to HSA

T1 sequence (P02786 89-760): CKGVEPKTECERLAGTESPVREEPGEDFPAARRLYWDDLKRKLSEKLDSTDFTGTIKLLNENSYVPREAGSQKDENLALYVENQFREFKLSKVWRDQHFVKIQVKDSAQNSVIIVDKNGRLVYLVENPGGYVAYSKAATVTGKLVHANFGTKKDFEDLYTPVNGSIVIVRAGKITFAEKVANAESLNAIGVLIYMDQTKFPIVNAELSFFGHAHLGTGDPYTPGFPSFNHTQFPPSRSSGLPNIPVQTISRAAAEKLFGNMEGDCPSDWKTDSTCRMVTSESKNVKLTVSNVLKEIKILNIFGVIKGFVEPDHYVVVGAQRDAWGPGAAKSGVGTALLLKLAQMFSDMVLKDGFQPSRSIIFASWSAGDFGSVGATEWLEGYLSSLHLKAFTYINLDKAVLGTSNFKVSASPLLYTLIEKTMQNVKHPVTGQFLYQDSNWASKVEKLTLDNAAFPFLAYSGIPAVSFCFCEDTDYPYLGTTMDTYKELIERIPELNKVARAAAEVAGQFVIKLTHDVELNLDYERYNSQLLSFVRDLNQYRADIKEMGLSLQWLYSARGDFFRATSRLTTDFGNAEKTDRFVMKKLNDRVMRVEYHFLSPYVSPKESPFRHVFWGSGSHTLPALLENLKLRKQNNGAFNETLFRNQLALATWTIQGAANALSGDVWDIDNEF

Binder	RLU [1]	hCD71:HSA [2]
CD71-binding FN3 domain SEQ ID NO: 275 (designed binder) MSLPAPKNLVVSRVTEDSARLSWTAPDAAFDSFEIGYFENLYLGEAIVLTVPGSERSYDLTGLKPGTEYWVQIGGVKGGNWSAPLVAEFTT	3.4e+06 RLU	322
CD71-binding FN3 domain SEQ ID NO: 280 (designed binder) MSLPAPKNLVVSRVTEDSARLSWTALDAAFDSFEIGYFENLYLGEAIVLTVPGSERSYDLTGLKPGTEYWVQIGGVKGGNWSAPLSAIFTT	3.21e+06 RLU	103
CD71-binding FN3 domain SEQ ID NO: 296 (designed binder) MSLPAPKNLVVSRVTEDSARLSWTAPDAAFDSFDIGYFELTWYGEAIVLTVPGSERSYDLTGLKPGTEYWVSIGGVKGGIWSSPLSAIFTT	3.39e+06 RLU	99
CD71-binding FN3 domain SEQ ID NO: 292 (designed binder) MSLPAPKNLVVSRVTEDSARLSWTAPDAAFDSFEIGYWENAYKGEAIVLTVPGSERSYDLTGLKPGTEYVVFIGGVKGGVWSVSLSAIFTT	4.33e+06 RLU	291
CD71-binding FN3 domain SEQ ID NO: 298 (designed binder) MSLPAPKNLVVSRVTEDSARLSWTAPDAAFDSFEIGYFENLYLGEAIVLTVPGSERSYDLTGLKPGTEYWVQIGGVKGDNWSAPLSAIFTT	3.67e+06 RLU	287
CD71-binding FN3 domain SEQ ID NO: 289 (designed binder) MSLPAPKNLVVSRVTEDSARLSWTAPDAAFDSFEIAYFEIAWLGEAIVLTVPGSERSYDLTGLKPGTEYWVQIGGVKGGAYSTPLSAIFTT	3.57e+06 RLU	77
CD71-binding FN3 domain SEQ ID NO: 278 (designed binder) MSLPAPKNLVVSRVTEDSARLSWTAPDAAFDSFEIGYFENLYLGEAIVLTVPGSERSHDLTGLKPGTEYWVQIGGVKGGNWSAPLSAIFTT	3.46e+06 RLU	435
CD71-binding FN3 domain SEQ ID NO: 284 (designed binder) MSLPAPKNLVVSRVTEDSARLSWTAPDAAFDSFEIGYWENAYKGEAIVLTVPGSERSYDLTGLKPGTEYMVFIGGVKGGVWSVPLSAIFTT	2.37e+06 RLU	195
CD71-binding FN3 domain SEQ ID NO: 283 (designed binder) MSLPAPKNLVVSRVTEDSARLSWTAPDAAFDSFEIAYQELSLWGEAIVLTVPGSERSYDLTGLKPGTEYYVHIGGVKGGIWSSPLSAYSTT	2.07e+06 RLU	77
CD71-binding FN3 domain SEQ ID NO: 276 (designed binder) MSLPAPKNLVVSRVTEDSARLSWTAPDAAFDSFEIAYFELDYVGEAIVLTVPGSERSYDLTGLKPGTEYWVQIGGVKGGTWSGPLSAIFTI	3.13e+06 RLU	62
CD71-binding FN3 domain SEQ ID NO: 286 (designed binder) MSLPAPKNLVVSRVTEDSARLSWTAPDAAFDSFEIVYAEPVRFGEAIVLTVPGSERSYDLTGLKPGTEYWVQIGGVKGGEWSSPLSAIFTT	2.66e+06 RLU	131
CD71-binding FN3 domain SEQ ID NO: 301 (designed binder) MSLPAPKNLVVSRVTEDSARLSWTTPDAAFDSFEIGYFENLYLGEAIVLTVPGSERSYDLTGLKPGTEYWVQIGGVKGGNWSAPLSAIFTT	3.19e+06 RLU	152
CD71-binding FN3 domain SEQ ID NO: 299 (designed binder) MSLPAPKNLVVSRVTEDSARLSWTAPDAAFDSFEIAYFENLYLGEAIVLTVPGSERSYDLTGLKPGTEYWVQIGGVKGGNWSAPLSAIFTT	3.26e+06 RLU	375
CD71-binding FN3 domain SEQ ID NO: 300 (designed binder) MSLPAPKNLVVSRVTEDSARLSWTAPDAAFDSFEIGYFEATPNGEAIVLTVPGSERSYDLTGLKPGTEYKVFIGGVKGGRWSKPLSAIFTT	3.88e+06 RLU	284
CD71-binding FN3 domain SEQ ID NO: 297 (designed binder) MSLPAPKNLVVSRVTEDSARLSWTAPDAAFDSFEISYFENTWYGEAIVLTVPGSERSYDLTGLKPGTEYSVRIFGVKGGNFSFPLSAIFTT	2.64e+06 RLU	512
CD71-binding FN3 domain SEQ ID NO: 285 (designed binder) MSLPAPKNLVVSRVTEDSARLSWTATDAAFDSFEIGYWENAYKGEAIVLTVPGSERSYDLTGLKPGTEYVVFIGGVKGGVWSVPLSAIFTT	2.81e+06 RLU	201
CD71-binding FN3 domain SEQ ID NO: 277 (designed binder) MSLPAPKNLVVSRVTEDSARLSWTAPDAAFDSFEIGYFELTYYGEAIVLTVPGSERSYDLTGLKPGTEYWVQIGGVKGGGFSEPLSAIFTT	4.13e+06 RLU	276
CD71-binding FN3 domain SEQ ID NO: 282 (designed binder) MSLPAPKNLVVSRVTEDSARLSWTAPDAAFDSFDIGYFELTWYGEAIVLTVPGSERSYDLTGLKPGTEYWVSIGGVKGGRFSEPLYARFTT	3.2e+06 RLU	240

Other lines, results leading:

RLU [1]	hCD71:HSA [2]	Binder
3.35e+06 RLU	137	CD71-binding FN3 domain SEQ ID NO: 319 (designed binder) MSLPAPKNLVVSRVTEDSARLSWTAPGAAFDSFEIGYFENLYLGEAIVLTVPGSERSYDLTGLKPGTEYWVQIGGVKGGVWSVPLSAIFTT
3.75e+06 RLU	50	CD71-binding FN3 domain SEQ ID NO: 307 (designed binder) MSLPAPKNLVVSRVTEDSARLSWTAPDAAFNSFEIGYFENLYLGEAIVLTVPGSERSYDLTGLKPGTEYWVQIGGVKGGTFSAPLSAIFTT
2.75e+06 RLU	62	CD71-binding FN3 domain SEQ ID NO: 323 (designed binder) MSLPAPKNLVVSRVTEDSARLSWTAPDAAFDSFEIGYFENLYLGEAIVLTVPGSERSYDLTGLKPGTEYWVQIGGVKGGNWSGPLSAIFTT
1.17e+06 RLU	79	CD71-binding FN3 domain SEQ ID NO: 306 (designed binder) MSLPAPKNLVVSRVTEDSARLSWTAPDAAFDSFEIGHFENLYLGEAIVLTVPGSERSYDLTGLKPGIEYWVQIGGVKGGVWSVSLSAIFTT
3.13e+06 RLU	294	CD71-binding FN3 domain SEQ ID NO: 324 (designed binder) MSLPAPKNLVVSRITEDSARLSWTAPDAAFDSFEIGYFENLYLGEAIVLTVPGSERSYDLTGLKPGTEYWVQIGGVKGGNWSAPLSAISTT
3.38e+06 RLU	171	CD71-binding FN3 domain SEQ ID NO: 322 (designed binder) MSLPAPKNLVVSRVTEDSARLSWTAPDAAFDSFEIGYFEITRYGEAIILFVPGSERSYDLTGLKPGTEYWVQIGGVKGGNWSAPLSAIFTT
2.49e+06 RLU	41	CD71-binding FN3 domain SEQ ID NO: 315 (designed binder) MSLPAPKNLVVSRVTEDSARLSWTAPDAAFDSFEIGYFENLYLGEAIVLTVPGSERSYDLTGLKPGTEYWVQIGGVKGGNWSAPLSAISTT
1.5e+06 RLU	79	CD71-binding FN3 domain SEQ ID NO: 326 (designed binder) MSLPAPKNLVVSRVTEDSARLSWTAPDAAFDSFEIGYWENAYKGEAIVLTVPGSERSYDLTGLKPGTEYWVQIGGVKGGVWSTPLSAIFTT
2.43e+06 RLU	114	CD71-binding FN3 domain SEQ ID NO: 325 (designed binder) MSLPAPKNLVVSRVTEDSARLSWTAPDAAFDSFEIGYFENLYLGEAIVLTVPGSERSYDLTGLKPGTEYWVQIGGVKGGNWSAPLSEIFTT
3.55e+06 RLU	127	CD71-binding FN3 domain SEQ ID NO: 308 (designed binder) MSLPAPKNLVVSRVTEDSARMSWTTPDAAFDSFEIGYFENLYLGEAIVLTVPGSERSYDLTGLKPGTEYWVQIGGVKGGNWSAPLSAIFTT
3.62e+06 RLU	315	CD71-binding FN3 domain SEQ ID NO: 305 (designed binder) MSLPAPKNLVVSRVTEDSARLSWTAPDAAFDSFEIAYFEQTYTGEAIVLTVPGSERSYDLTGLKPGTEYWVQIGGVKGGNWSAPLSAIFTT
2.97e+06 RLU	480	CD71-binding FN3 domain SEQ ID NO: 313 (designed binder) MSLPAPKNLVVSRVTEDSARLSWTAPDAAFDSFEIAYFENDWAGEAIVLTIPGSERSYDLTGLKPGTEYWVQIGGVKGGNWSAPLSAIFTT
3.1e+06 RLU	324	CD71-binding FN3 domain SEQ ID NO: 312 (designed binder) MSLPAPKNLVVSRVTEDSARLSWTAPDAAFDSFEIGYFENLYLGEAIVLTIPGSERSYDLTGLKPGTEYWVQIGGVKGGNWSAPLSAIFTT
3.03e+06 RLU	301	CD71-binding FN3 domain SEQ ID NO: 316 (designed binder) MSLPAPKNLVISRVTEDSARLSWTAPDAAFDSFEIGYFENLYLGEAIVLTVPGSERSYDLTGLKPGTEYWVQIGGVKGGNWSAPLSAIFTT
2.36e+06 RLU	172	CD71-binding FN3 domain SEQ ID NO: 320 (designed binder) MSLPVPKNLVVSRVTEDSARLSWTAPDAAFDSFEIGYWENAYKGEAIVLTVPGSERSYDLTGLKPGTEYWVQIGGVKGGNWSAPLSAIFTT
2.38e+06 RLU	133	CD71-binding FN3 domain SEQ ID NO: 311 (designed binder) MSLPAPKNLVVSRVTEDSARLSWTAPDAAFDSFEIGYWENAYKGEAIVLTVPGSERSYDLTGLKPGTEYVVFIGGVKGGSWSNPLSAIFTT
3.39e+06 RLU	274	CD71-binding FN3 domain SEQ ID NO: 304 (designed binder) MSLPAPKNLVVSRVTEDSARLSWTAPDAAFDSFEIGYFENLYLGEAIVLTVPGSERSYDLTGLKPGTEYVVFIGGVKGGVWSVPLSAIFTT
3.57e+06 RLU	287	CD71-binding FN3 domain SEQ ID NO: 309 (designed binder) MSLPAPENLVVSRVTEDSARLSWTAPDAAFDSFEIGYFENLYLGEAIVLTVPGSERSYDLTGLKPGTEYWVQIGGVKGGNWSAPLSAIFTT
